Measured values reported in US9926369B2, “Methods for treating hepatocellular cancer by administering an anti-Ang-2 antibody” (Regeneron Pharmaceuticals, Inc., priority 2009, dated 2018).

Tests used:
Dimeric Monkey Ang-2FD = test: Surface plasmon resonance binding to dimeric monkey Ang-2FD conjugated to human IgG1; set-up: species or system Macca fascicularis; details: SPR, room temperature
Protocol: Equilibrium dissociation constants (KD values) for the binding of selected purified Ang-2 antibodies to dimeric fibrinogen-like domain of human (SEQ ID NO: 519), mouse (Mus musculus; SEQ ID NO: 520) and monkey (Macca fascicularis; SEQ ID NO: 521) Ang-2 (Ang-2FD) conjugated to human IgG1 (SEQ ID NO:528) were determined by surface kinetics using a real-time biosensor surface plasmon resonance assay. Antibody was captured on a goat anti-mouse IgG polyclonal antibody surface, a goat anti-human κ polyclonal antibody (Southern Biotech, Birmingham, Ala.) surface or a goat anti-human IgG polyclonal antibody (Jackson Immuno Research Lab, West Grove, Pa.) surface created through direct amine coupling to a BIACORE™ CM5 sensor chip to form a captured antibody surface. Varying concentrations (ranging from 50 nM to 6.25 nM) of protein were injected at 100 μl/min over captured antibody surface for 90 seconds. Antigen-antibody binding and dissociation were monitored in real time at room temperature. Kinetic analysis was performed to calculate KD and half-life of antigen/antibody complex dissociation.
The above experiment was repeated using selected purified anti-Ang-2 antibodies cloned onto human IgG1.

[1] = test system: Tie-2 phosphorylation (Ang-2-mediated) in HUVECs; test: Inhibition of Ang-2-mediated Tie-2 phosphorylation in FOXO1-adenovirus infected HUVECs; assay type: cell-based, human; details: antibody 0.5 μg/ml
Protocol: Further, the inventors have shown that infection of HUVECs with an adenovirus encoding FOXO1 results in expression and secretion of Ang-2, followed by activation of Tie-2 phosphorylation (Daly et al. 2006 PNAS 103:15491).
Anti-Ang-2 antibodies were tested for their ability to inhibit Tie-2 phosphorylation. Briefly, 7×10^5 HUVECs (Vec Technologies, Rensselaer, N.Y.) were plated in 6 cm cell culture dishes in 3.5 ml of MCDB131 Complete medium (Vec Technologies, Rensselaer, N.Y.). The following day, the cells were washed with Opti-MEM (Invitrogen Corp., Carlsbad, Calif.) and fed with 2 ml of Opti-MEM. […] Cells were then washed with MCDB131 and fed with 2 ml of MCDB131 containing anti-Ang-2 antibodies at a concentration of 0.5 μg/ml. At twenty hours post infection, cells were lysed and subjected to Tie-2 immunoprecipitation as described by Daly et al., Proc. Natl. Acad. Sci. USA 103:15491-15496 (2006). Immunoglobulin was collected on protein A/G beads (Santa Cruz Biotechnology, Santa Cruz, Calif.) for one hour. […] Signals were detected using HRP-conjugated secondary antibodies and ECL reagents (GE Healthcare, Piscataway, N.J.). X-Ray films were scanned and the phospho-Tie-2 and Tie-2 signals were quantified using ImageJ software. […]

Monomeric hAng-2FD = target: T1, Monomeric hAng-2FD (Homo sapiens, UniProt O15123); test: SPR binding to monomeric hAng-2FD at 25° C. and 37° C.
T1 sequence (O15123 282-496 limits assumed): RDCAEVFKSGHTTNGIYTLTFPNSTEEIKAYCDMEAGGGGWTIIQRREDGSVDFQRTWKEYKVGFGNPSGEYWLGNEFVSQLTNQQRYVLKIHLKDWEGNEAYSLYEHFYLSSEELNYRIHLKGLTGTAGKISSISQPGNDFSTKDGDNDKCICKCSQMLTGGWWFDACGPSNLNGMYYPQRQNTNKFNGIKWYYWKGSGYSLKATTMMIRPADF
Protocol: Additional experiments were conducted to measure the binding properties of selected anti-Ang-2 antibodies to monomeric hAng-2FD at 25° C. and 37° C. Each selected antibody or control construct was captured at a flow rate of 40 μL/min for 1 minute on a goat anti-human IgG polyclonal antibody surface created through direct chemical coupling to a BIACORE™ chip to form a captured antibody surface. Human Ang-2FD at a concentration of 500 nM or 7.8 nM was injected over the captured antibody surface at a flowrate of 60 μL/min for 3 minutes, and antigen-antibody dissociation was monitored in real time for 20 minutes at either 25° C. or 37° C.

hAng-1-WT = target: T2, hAng-1-WT (Homo sapiens, UniProt Q15389); test: SPR binding to full-length wild-type human Ang-1 (preferential binding)
T2 construct: Full-length wild-type human Ang-1 or Ang-2 at a concentration of 25 nM or 0.78 nM
T2 sequence (Q15389 16-498): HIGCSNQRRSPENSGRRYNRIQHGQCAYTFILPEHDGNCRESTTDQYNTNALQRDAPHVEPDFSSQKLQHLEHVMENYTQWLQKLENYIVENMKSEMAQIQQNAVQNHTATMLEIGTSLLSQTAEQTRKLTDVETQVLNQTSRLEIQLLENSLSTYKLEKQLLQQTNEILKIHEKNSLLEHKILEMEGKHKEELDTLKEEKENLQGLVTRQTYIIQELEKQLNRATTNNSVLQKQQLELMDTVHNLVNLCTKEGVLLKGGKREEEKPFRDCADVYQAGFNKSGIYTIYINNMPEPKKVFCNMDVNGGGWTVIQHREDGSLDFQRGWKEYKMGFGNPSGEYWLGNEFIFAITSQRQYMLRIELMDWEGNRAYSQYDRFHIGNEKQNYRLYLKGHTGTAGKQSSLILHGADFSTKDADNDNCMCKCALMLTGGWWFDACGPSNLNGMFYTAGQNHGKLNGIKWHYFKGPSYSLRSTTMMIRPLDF
Protocol: Binding experiments (plasmon resonance assays) were conducted to ascertain whether selected antibodies bound to both Ang-2 and Ang-1 or if they preferentially bound to Ang-2 only. Each selected antibody or control construct was captured at a flow rate of 40 μL/min for 1 minute on a goat anti-human IgG polyclonal antibody surface created through direct chemical coupling to a BIACORE™ chip to form a captured antibody surface. Full-length wild-type human Ang-1 or Ang-2 at a concentration of 25 nM or 0.78 nM were injected over the captured antibody surface at a flowrate of 60 μL/min for 3 minutes, and antigen-antibody dissociation was monitored in real time for 20 minutes at either 25° C. or 37° C.

Sequence of Dimeric Monkey Ang-2FD (as listed by the source): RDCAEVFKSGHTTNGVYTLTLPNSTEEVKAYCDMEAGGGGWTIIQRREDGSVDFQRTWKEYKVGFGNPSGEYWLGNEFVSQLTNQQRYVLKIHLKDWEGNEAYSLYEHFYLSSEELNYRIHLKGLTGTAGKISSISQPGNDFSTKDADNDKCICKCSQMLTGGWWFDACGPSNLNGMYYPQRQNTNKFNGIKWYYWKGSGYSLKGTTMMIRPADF

## H1H685P: human anti-Ang-2 antibody, HCVR/LCVR SEQ ID NOs 18/20; also referred to as mAb1 [Antibody H1H685P]
Dimeric Monkey Ang-2FD
  Kd: 0.0994 nM
[1]
  Inhibition of Tie-2 phosphorylation: +++ (75-100%)
  Inhibition of Tie-2 phosphorylation (in words): Especially robust inhibition
Monomeric hAng-2FD; 25° C.
  Kd: 0.336 nM
  ka, binding to monomeric hAng-2FD: 244000 M/s
  kd, binding to monomeric hAng-2FD: 7.96e-05 s⁻¹
Monomeric hAng-2FD; 37° C.
  Kd: 0.342 nM
  ka, binding to monomeric hAng-2FD: 406000 M/s
  kd, binding to monomeric hAng-2FD: 0.000139 s⁻¹
hAng-1-WT; 25° C.
  KD, binding to hAng-1-WT: No binding
  ka, binding to hAng-1-WT: No binding
  kd, binding to hAng-1-WT: No binding
hAng-1-WT; 37° C.
  KD, binding to hAng-1-WT: No binding
  ka, binding to hAng-1-WT: No binding
  kd, binding to hAng-1-WT: No binding
hAng-1-WT; SPR
  Binding to Ang-1 (in words): does not bind to Ang-1
